In data set [1] the target is T1, human alpha-thrombin (Homo sapiens, UniProt P00734;P00734 315-363;364-622). Kind of data set: bead-based fluorescence binding; apparent Kd; 50 mM Tris, 100 mM NaCl, 1 mM MgCl2, 5 mM KCl, 1 mM CaCl2, 0.01% Tween 20, pH 7.5 (selection buffer), 1 h room temperature, wa.
The target in data set [2] is T1, human alpha-thrombin. Kind of data set: bead-based fluorescence binding; apparent Kd; Figure S7 legend gives 430 pM; 50 mM Tris, 100 mM NaCl, 1 mM MgCl2, 5 mM KCl, 1 mM CaCl2, 0.01% Tween 20, pH 7.5 (selection buffer), 1 h room temperature, wa.
In data set [3] the target is T1, human alpha-thrombin. Kind of data set: bead-based fluorescence binding; 50 pM aptamer; 50 mM Tris, 100 mM NaCl, 1 mM MgCl2, 5 mM KCl, 1 mM CaCl2, 0.01% Tween 20, pH 7.5 (selection buffer), 1 h room temperature, wa.

B1: TBV-08 (clone 8) (structured_DNA)
DNA: AGCAGCACAGAGGTCAGATGGGTTGGTGTGGTTGGTGAGACCTTGCATGCGACTTGGTGAGCACGTGAGAAGTCCGTGGTAGGGCAGGTTGGGGTGACTCCTATGCGTGCTACCGTGAA
Regarding B1, the Kd with human alpha-thrombin [1] amounted to 0.0081 nM.

B2: TBV-08 without primer sites (structured_DNA)
DNA: GGTTGGTGTGGTTGGTGAGACCTTGCATGCGACTTGGTGAGCACGTGAGAAGTCCGTGGTAGGGCAGGTTGGGGTGACT
Turning to B2, in the data set with human alpha-thrombin [2], the Kd worked out at 0.44 nM.

B3: clone 6 (structured_DNA)
DNA: AGCAGCACAGAGGTCAGATGGGTTGGTGTGGTTGGCGAGGACGCTGTGTGCGCTTCGAGGGCCTAGAAGGAGTCCGTGGTAGGGCAGGTTGGGGTGACTCCTATGCGTGCTACCGTGAA
As for B3, the binding result in the data set with human alpha-thrombin [3] was “binds”.

B4: clone 9 (structured_DNA)
DNA: AGCAGCACAGAGGTCAGATGGGTTGGTGTGGTTGGCATTCGTAACTATGGGGTTCCTGTATTGGTATAGGAGTCCGTGGTAGGGCAGGTTGGGGTGACTCCTATGCGTGCTACCGTGAA
On to B4, for which, in the data set with human alpha-thrombin [3], the binding result was “binds”.

B5: clone 10 (structured_DNA)
DNA: AGCAGCACAGAGGTCAGATGGGTTGGTGTGGTTGGTTTGCCGATGTGTGGACAGCATGTGGGGTAGAGCGAGTCCGTGGTAGGGCAGGTTGGGGTGACTCCTATGCGTGCTACCGTGAA
B5: the binding result in the data set with human alpha-thrombin [3] is recorded as “binds”.

B6: clone 1 (structured_DNA)
DNA: AGCAGCACAGAGGTCAGATGGGTTGGTGTGGTTGGAGCGGACTTTACCTGTGTCAGCTGCGGGGGCCGCAAGTCCGTGGTAGGGCAGGTTGGGGTGACTCCTATGCGTGCTACCGTGAA
Regarding B6, in the data set with human alpha-thrombin [3], the binding result is recorded as “binds”.

B7: clone 2 (structured_DNA)
DNA: AGCAGCACAGAGGTCAGATGGGTTGGTGTGGTTGGCTGATACCGGAAGGGGTGTGTGTAGCGCGGTTGAGAGTCCGTGGTAGGGCAGGTTGGGGTGACTCCTATGCGTGCTACCGTGAA
As for B7, the binding result with human alpha-thrombin [3] is reported as “binds”.

B8: clone 5 (structured_DNA)
DNA: AGCAGCACAGAGGTCAGATGGGTTGGTGTGGTTGGCATTTTGACCGAATGACGTTAGCAAAATATGTTAGAGTCCGTGGTAGGGCAGGTTGGGGTGACTCCTATGCGTGCTACCGTGAA
Take B8: in the data set with human alpha-thrombin [3], the binding result was “binds”.

B9: clone 7 (structured_DNA)
DNA: AGCAGCACAGAGGTCAGATGGGTTGGTGTGGTTGGCTCTGATAACCCGGGGCTGTGGTGCGCCAGGTAGGAGTCCGTGGTAGGGCAGGTTGGGGTGACTCCTATGCGTGCTACCGTGAA
B9: the binding result in the data set with human alpha-thrombin [3] is “binds”.

B10: clone 3 (structured_DNA)
DNA: AGCAGCACAGAGGTCAGATGGGTTGGTGTGGTTGGTGAGTCGACTGTGTGCCTCAAGTAGAACGTAGGTGAGTCCGTGGTAGGGCAGGTTGGGGTGACTCCTATGCGTGCTACCGTGAA
B10: in the data set with human alpha-thrombin [3], the binding result was “binds”.

B11: clone 4 (structured_DNA)
DNA: AGCAGCACAGAGGTCAGATGGGTTGGTGTGGTTGGCTGGTCTGGGGGCGTTTACTGGGCGCGCATTTTAAAGTCCGTGGTAGGGCAGGTTGGGGTGACTCCTATGCGTGCTACCGTGAA
In the case of B11, the binding result with human alpha-thrombin [3] was “binds”.

The values are drawn from paper PMC3526301.
